Measurements reported in paper PMC4856805.
pKd: −log10 of the molar value.

Assays:
Assay in all cases: SPR
MEDI4212 aFuc (human) = biological target: MEDI4212 aFuc (human)
[1] = biological target: MEDI4212 3M (S239D/A330L/I332E) (human)
[2] = biological target: MEDI4212 wild-type (WT) monoclonal antibody (human)
[3] = biological target: MEDI4212 2M2 (S239D/I332E) (human)

Row | pKd (MEDI4212 aFuc (human)) | pKd [1] | pKd [2] | pKd [3] | Substance
1 | 6.41 | 7.44 | 5.30 | 7.17 | Flag-tagged hFcγRIIIa (158F) (from UniProt P08637 17-254) (receptor)
2 | 7.30 | 8.15 | 6.30 | 8.15 | Flag-tagged hFcγRIIIa (158V) (receptor)
